The record followed here is the supplement of paper PMC7877785.

± gives the uncertainty stated by the source.

The nature of the data set: self-splicing fitness, log relative to wild type (ln ratio); higher = more splicing; Tetrahymena group I intron in knt gene, E. coli kanamycin selection, DiMSum; sequences stand for … in CUCUCU…GGAGGGAAAAGUUAUCAGGCAUGCACCUGGUAGCUAGUCUUUAAACCAAUAGAUUGCAUCGGUUUAAAAGGCAAGACCGUCAAAUUGCGGGAAAGGGGUCAACAGCCGUUCAGUACCAAGUCUCAGGGGAAACUUUGAGAUGGCCUUGCAAAGGGUAUGGUAAUAAGCUGACGGACAUGGUCCUAACCACGCAGCCAAGUCCUAAGUCAACAGAUCUUCUGUUGAUAUGGAUGCAGUUCACAGACUAAAUGUCGGUCGGGGAAGAUGUAUUCUUCUCAUAAGAUAUAGUCGGACCUCUCCUUAAUGGGAGCUAGCGGAUGAAGUGAUGCAACACUGGAGCCGCUGGGAACUAAUUUGUAUGCGAAAGUAUAUUGAUUAGUUUUGGAGUACUCGUGGUCG
The method, boiled down: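 Fitness was computed with DiMSum as the error-weighted combination of replicate fold changes, kanamycin versus none, each normalised to wild type. The library randomised all eight intron nucleotides of the P1ex region, with the intron placed in the knt kanamycin-resistance gene on pET-22b(+) in E. coli BL21(DE3). Six replicate transformations were grown overnight at 37°C or 30°C on LB agar with or without 25 μg/mL kanamycin, plus 100 μg/mL carbenicillin, 50 μM IPTG and 0.2% rhamnose. Pooled colonies were amplicon-sequenced on an Illumina HiSeq 2500.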

Consider CUCUAGCAAUAUUACGCGUC, for which the “self-splicing fitness (ln)” value runs as follows: (30 °C) -3.9 ± 0.47; (37 °C) -2.85 ± 0.24. The corresponding values for CUCUAGCAAUAUUACGCUAC are -3.65 ± 0.47 and -1.14 ± 0.37. As for CUCUAGCAAUAUUACGCUGU, the “self-splicing fitness (ln)” value is -3.07 ± 0.31 (30 °C) and -3.24 ± 0.29 (37 °C). In the case of CUCUAGCAAUAUUACGGAAU, the “self-splicing fitness (ln)” value runs as follows: (30 °C) -3.43 ± 0.26; (37 °C) -3.25 ± 0.3. Turning to CUCUAGCAAUAUUACGGGUG, the “self-splicing fitness (ln)” value reads like this: (30 °C) -1.57 ± 0.092; (37 °C) -0.947 ± 0.1. For CUCUAGCAAUAUUACGGGUU the same measures were -4.28 ± 0.32 and -3.31 ± 0.24. The corresponding values for CUCUAGCAAUAUUACGGUCC are -2.84 ± 0.33 and -2.53 ± 0.36. For CUCUAGCAAUAUUACGGUCG the same measures were -1.51 ± 0.14 and -0.933 ± 0.14. CUCUAGCAAUAUUACGGUGC: the “self-splicing fitness (ln)” value (30 °C) was -2.62 ± 0.21. As for CUCUAGCAAUAUUACGUCCA, the “self-splicing fitness (ln)” value (37 °C) is -2.12 ± 0.4.

For the sequence CUCUAGCAAUAUUACGUGGA, the “self-splicing fitness (ln)” value was -3.43 ± 0.25 (30 °C) and -2.17 ± 0.19 (37 °C). As for CUCUAGCAAUAUUACGUGUC, the “self-splicing fitness (ln)” value (30 °C) is -3.45 ± 0.21 and the “self-splicing fitness (ln)” value (37 °C) is -3.91 ± 0.31. For CUCUAGCAAUAUUACGUUAA, the “self-splicing fitness (ln)” value (30 °C) was -2.75 ± 0.27. With CUCUAGCAAUAUUACGUUUA, the “self-splicing fitness (ln)” value (30 °C) was -3.48 ± 0.25 and the “self-splicing fitness (ln)” value (37 °C) is -3.07 ± 0.29. For CUGAAGCAAUAUUACGAACA the same measures were -2.82 ± 0.41 and -2.11 ± 0.23. Take CUGAAGCAAUAUUACGAGAC: the “self-splicing fitness (ln)” value is -0.346 ± 0.11 (30 °C) and 0.35 ± 0.15 (37 °C).

As to CUGAAGCAAUAUUACGAGCC, the “self-splicing fitness (ln)” value (30 °C) is -3.13 ± 0.31. Turning to CUGAAGCAAUAUUACGAGUU, the “self-splicing fitness (ln)” value reads like this: (30 °C) -4 ± 0.23; (37 °C) -3.47 ± 0.19. With CUGAAGCAAUAUUACGAUAG, the “self-splicing fitness (ln)” value is -0.213 ± 0.082 (30 °C) and 0.563 ± 0.11 (37 °C). The corresponding values for CUGAAGCAAUAUUACGCACG are -0.222 ± 0.072 and -1.34 ± 0.08. For CUGAAGCAAUAUUACGCCAU, the “self-splicing fitness (ln)” value (30 °C) is -3.41 ± 0.31 and the “self-splicing fitness (ln)” value (37 °C) is -2.52 ± 0.36. For CUGAAGCAAUAUUACGCCUC, where the note is “30 °C”, the “self-splicing fitness (ln)” value was -3.61 ± 0.44.

In the case of CUGAAGCAAUAUUACGCGCA, the “self-splicing fitness (ln)” value is -3.11 ± 0.23 (30 °C) and -2.19 ± 0.36 (37 °C). For CUGAAGCAAUAUUACGCGGG the same measures were -1.65 ± 0.17 and -1.83 ± 0.19. Turning to CUGAAGCAAUAUUACGCUGU, the “self-splicing fitness (ln)” value is -3.65 ± 0.2 (30 °C) and -2.75 ± 0.24 (37 °C).

In the case of CUGAAGCAAUAUUACGGAAA, the “self-splicing fitness (ln)” value reads like this: (30 °C) -3.46 ± 0.26; (37 °C) -1.43 ± 0.31. For CUGAAGCAAUAUUACGGAGA the same measures were -3.62 ± 0.38 and -1.97 ± 0.32. For CUGAAGCAAUAUUACGGCAU the same measures were -2.91 ± 0.12 and -3.52 ± 0.31. For CUGAAGCAAUAUUACGGCCA the same measures were -2.42 ± 0.17 and -2.69 ± 0.34.

On to CUGAAGCAAUAUUACGGUAA, for which the “self-splicing fitness (ln)” value reads like this: (30 °C) -3.7 ± 0.24; (37 °C) -1.27 ± 0.24. For CUGAAGCAAUAUUACGGUGA the same measures were -4.38 ± 0.31 and -2.6 ± 0.21.

In the case of CUGAAGCAAUAUUACGUCAA, the “self-splicing fitness (ln)” value (30 °C) is -1.2 ± 0.065 and the “self-splicing fitness (ln)” value (37 °C) was -0.435 ± 0.084.

Take CUGAAGCAAUAUUACGUUAC: the “self-splicing fitness (ln)” value was -3.27 ± 0.35 (30 °C) and -2.39 ± 0.44 (37 °C). For CUGAAGCAAUAUUACGUUGA the same measures were -4.04 ± 0.18 and -2.66 ± 0.21. CUGCAGCAAUAUUACGAAAU: the “self-splicing fitness (ln)” value was -3.51 ± 0.37 (30 °C) and -1.62 ± 0.18 (37 °C). As for CUGCAGCAAUAUUACGACAA, under “37 °C”, the “self-splicing fitness (ln)” value is -0.88 ± 0.19. As for CUGCAGCAAUAUUACGAGGA, the “self-splicing fitness (ln)” value (30 °C) was -3.68 ± 0.22 and the “self-splicing fitness (ln)” value (37 °C) is -2.39 ± 0.18. As to CUGCAGCAAUAUUACGAGGC, the “self-splicing fitness (ln)” value (30 °C) was -2.65 ± 0.17 and the “self-splicing fitness (ln)” value (37 °C) is -1.97 ± 0.22.

As for CUGCAGCAAUAUUACGAUCG, the “self-splicing fitness (ln)” value (30 °C) is -0.0275 ± 0.073 and the “self-splicing fitness (ln)” value (37 °C) was 0.558 ± 0.1.
